From patent publication US7550429B2, “Glycoproteins having lipid mobilising properties and therapeutic applications thereof” (Aston University, priority 1998, dated 2009)
One block for each molecule: values may come before it.

Key:
[1] = tested on: murine adipocyte plasma membrane adenylate cyclase; test: Adenylate cyclase assay with adipocyte plasma membranes; assay type: biochemical, mouse; details: GTP-dependent stimulation
Method: In a typical procedure white adipocytes were isolated from mouse epididymal fat pads as referred to above except that the cells were washed in 250 mM sucrose, 2 mM ethyleneglycol bis(β-aminoethylether)-N,N,N′,N′ (EGTA), 10 mM Tris-HCl (pH 7.4). Adipocytes were resuspended in 20 ml of the above buffer and homogenised by aspirating through a Swinny filter at least 10 times. The cell homogenate was then centrifuged at 300 g for 5 min, the fat cake removed from the surface and the remaining pellet and infranatant transferred to clean tubes. These were centrifuged at 30,000 g for 1 h at 4° C. and the membrane pellet formed was resuspended in the sucrose buffer (200 to 400 μl). Plasma membranes were separated from other organelle membranes on a self-forming gradient of Percoll™ colloidial silica particles. […]
An adenylate cyclase assay used was based on that developed by Salomon et al. (reference 16). […] Background binding was determined by running samples without [α-^32P] […]
Samples containing labelled nucleotides were diluted to 1 ml with water and loaded onto Dowex™ 50W8-400 ion-exchange columns primed with 10 ml of water. […] The radioactivity was determined using a Tri-carb™ 2000A scintillation analyser.

[2] = tested on: murine epididymal adipocytes; test: Lipolytic assay: glycerol release from isolated adipocytes; assay type: cell-based, mouse; details: for Stimulation of glycerol release (lipolysis): different doses, freshly isolated murine epididymal adipocytes, FIG. 9; for Lipid mobilizing activity, glycerol released: 5 μg human or 10 μg mouse LMF, incubated overnight at 4° C. with or without pAb 10 μg, mean±SEM, three determinations; for Specific activity: purified product after final stage HPLC Resource-iso
Method: Single cell suspensions of white adipocytes were prepared from finely minced epididymal fat pads of male BKW mice using collagenase digestion, substantially as described by S. A. Beck et al. (see above-mentioned reference 14). Samples to be assayed were incubated with 10^5-2×10^5 adipocytes (determined by means of a haemocytometer) for 2 h at 37° C. in 1 ml of Krebs-Ringer bicarbonate buffer, pH 7.2. The concentration of glycerol released was determined enzymatically by the method of Wieland as referred to above (see also GB2217330A). Control samples containing adipocytes alone were analyzed to determine the spontaneous glycerol release. Lipid mobilizing activity was expressed as μmol glycerol released/10^5 adipocytes/2 h.

[3] = tested on: ob/ob mice; test: In vivo effect of iv LMF in obese ob/ob mice; design: species or system mouse
Method: (§1) Non-esterified fatty acids (NEFA) were determined using a Wako-ASC-ACOD kit (Wako Chemical GmbH, Neuss, Germany). Triglycerides were determined using a Triglyceride kit (Sigma Chemical Co., Poole, United Kingdom) and 3-hydroxybutyrate by a quantitative enzymatic determination kit (Sigma). Glucose was measured using a glucose analyser (Beckman, Irvine, Calif.) and glycerol was determined enzymatically using the method of Wieland as described in “Methods of Enzymatic Analysis” (Ed. Bergmeyer, H. U.) Vol. 3, pp 1404-1409, published by Academic Press, London (1974) (reference 13).
FIG. 11 is a diagram similar to FIG. 10 showing change in body weight of ob/ob mice produced by iv administration of LMF (35 μg) (o) isolated from human urine as described in Example 2 and of control mice (x) administered PBS by iv injection. LMF was injected at times 0, 16, 24, 40, 48, 64, 72, 90, 96, 113, 120, 137 and 144 h; PBS was injected at the same time points. The animals were killed 160 h after the first injection. Results are expressed as mean±SEM for 5 animals per group.
As shown in FIG. 11 and by the data in Table 6, intravenous administration to obese ob/ob mice of LMF (35 μg) isolated from human urine produced a similar result. There was a decrease in total body weight which became significant within 24 h of the first injection and remained below that of the control group over the 160 h of the experiment.

[4] = tested on: ex-breeder male NMRI mice; test: In vivo fat depletion, iv LMF in ex-breeder male NMRI mice; design: species or system mouse
Method: as §1
FIG. 10 is a diagram showing change in body weight of ex-breeder male NMRI mice (30-40 g) produced by intravenous (iv) administration of LMF (8 μg) isolated from human urine as described in Example 2 (o) and of control mice administered PBS by iv injection (x).
In order to determine if the purified LMF isolated from human urine as in Example 2 was capable of fat depletion in vivo a sample of this LMF material ([…]) was injected into male ex breeder NMRI mice over a 72 h period. The LMF was injected at times 0, 17, 24, 41, 48, 62 and 72 hours and control mice were similarly injected with phosphate-buffered saline (PBS) at the same time points. The animals were killed at 89 h and the body composition and serum metabolite levels were determined. […] Changes in the body composition and serum metabolic levels are summarised in Table 5 and it will be seen that total body weight decreased by 3.6 g during the overall 89 h period of the experiment without change in food and water intake. […] Despite the fat mobilisation there were significant reductions in the serum concentrations of non-esterified fatty acids (NEFA), glycerol and glucose in mice receiving LMF.

[5] = LMF 35 μg iv, 160 h after first injection
[6] = LMF 8 μg iv over 72 h, killed at 89 h

- GTP concentration at maximal stimulation of adenylate cyclase [1]: 0.1 µM
B1: Zn-α2-glycoprotein (protein, listed as Homo sapiens)
chain: QENQDGRYSLTYIYTGLSKHVEDVPAFQALGSLNDLQFFRYNSKDRKSQPMGLWRQVEGMEDWKEDSQLQKAREDMETLKDIVEYYNDSNGSHVLQGRFGCEIENNRSSGAFWKYYYDGKDYIEFNKEIPAWVPFDPAAQITKQKWEAEPVYVQRAKAYLEEECPATLRKYLKYSKNILDRQDPPSVVVTSHQAPGEKKKLKCLAYDFYPGKIDVHWTRAGQVQEPELRGDVLHNGNGTYQSWVVVAVPPQDTAPYSCHVQHSSLAQPLVVPWEAS
notes: Zn-α2-glycoprotein purified about 670-fold from fresh human plasma by the method of Ohkubo et al
- Stimulation of glycerol release (lipolysis) [2]: stimulated glycerol release with a comparable dose-response profile

- GTP concentration at maximal stimulation of adenylate cyclase [1]: 0.1 µM
B2: Human LMF: 43 kDa glycoprotein lipid mobilising factor purified from urine of cachectic cancer patients (Example 2); Zn-α2-glycoprotein type (protein, UniProt P25311 21-298, looked up)
Zinc-alpha-2-glycoprotein: QENQDGRYSLTYIYTGLSKHVEDVPAFQALGSLNDLQFFRYNSKDRKSQPMGLWRQVEGMEDWKQDSQLQKAREDIFMETLKDIVEYYNDSNGSHVLQGRFGCEIENNRSSGAFWKYYYDGKDYIEFNKEIPAWVPFDPAAQITKQKWEAEPVYVQRAKAYLEEECPATLRKYLKYSKNILDRQDPPSVVVTSHQAPGEKKKLKCLAYDFYPGKIDVHWTRAGEVQEPELRGDVLHNGNGTYQSWVVVAVPPQDTAPYSCHVQHSSLAQPLVVPWEAS
- Final body weight ([3]; LMF 35 μg iv, 13 injections over 144 h, 160 h after first injection, mean±SEM, 5 mice): 69.5 ± 4.3 g
- Body composition: Fat [3, 5]: 30.6 ± 0.7%
- Body composition: Non Fat [3, 5]: 17.4 ± 1.0%
- Body composition: Water [3, 5]: 53.7 ± 1.1%
- Glucose [3, 5]: 260 ± 12 mg/100 ml
- Oxygen uptake [3, 5]: 0.55 ± 0.07 μl/mgBAT/h
- Serum 3-Hydroxybutyrate [3, 5]: 0.44 ± 0.01 mM
- Serum Glycerol [3, 5]: 5.31 ± 0.45 mM
- Serum NEFA [3, 5]: 1.45 ± 0.45 mEq/l
- Carcass fat ([3]; LMF 35 μg iv, body composition analysis at 160 h): 21.09 ± 0.99 g
- Time until decrease in total body weight became significant ([3]; after the first injection, FIG. 11): ≤ 24 h
- Initial body weight ([3]; baseline before first injection): 67.9 ± 2.9 g
- Food intake ([4]; LMF 8 μg iv over 72 h): 8.0 ± 0.2 g/day
- Water intake ([4]; LMF 8 μg iv over 72 h): 4.4 ± 0.4 mL/day
- Body composition: Fat [4, 6]: 3.4 ± 0.4 g
- Body composition: Non Fat [4, 6]: 9.6 ± 0.9 g
- Body composition: Water [4, 6]: 18.3 ± 0.8 g
- Serum Glucose [4, 6]: 186 ± 0.08 mg/100 ml
- Serum Glycerol [4, 6]: 6.73 ± 0.45 mM
- Serum NEFA [4, 6]: 0.95 ± 0.03 mEq/l
- Final body weight ([4]; LMF 8 μg iv, 7 injections over 72 h, killed at 89 h, mean±SEM, 5 mice): 31.6 ± 2.2 g
- Time until body weight significantly lower than PBS treated controls ([4]; LMF iv, FIG. 10): ≤ 41 h
- Reduction in body fat content ([4]; body composition analysis at 89 h): 42%
- Decrease in total body weight ([4]; overall 89 h period, no change in food and water intake): 3.6 g
- Lipid mobilizing activity, glycerol released [2]: 0.0062 ± 0.0002 μmole glycerol/10^5 adipocytes/2 h
- Stimulation of glycerol release (lipolysis) [2]: stimulated glycerol release with a comparable dose-response profile
- Specific activity [2]: 164.3 μmol/10^5 adipocytes/mg protein
- Effect of α-chymotrypsin digestion on in vitro biological activity ([2]; α-chymotrypsin digestion): chymotrypsin destroyed the in vitro biological activity

B3: Mouse LMF: 43 kDa glycoprotein lipid mobilising factor purified from murine adenocarcinoma MAC16 (Example 1) (protein, UniProt Q64726 18-307, looked up)
Zinc-alpha-2-glycoprotein: QETGSYYLTFLYTGLSRPSKGFPRFQATAFLNDQAFFHYNSNSGKAEPVGPWSQVEGMEDWEKESQLQRAREEIFLVTLKDIMDYYKDTTGSHTFQGMFGCEITNNRSSGAVWRYAYDGEDFIEFNKEIPAWIPLDPAAANTKLKWEAEKVYVQRAKAYLEEECPEMLKRYLNYSRSHLDRIDPPTVTITSRVIPGGNRIFKCLAYGFYPQRISLHWNKANKKLAFEPERGVFPNGNGTYLSWAEVEVSPQDIDPFFCLIDHRGFSQSLSVQWDRTRKVKDENNVVAQPQ
- Lipid mobilizing activity, glycerol released [2]: 0.0977 ± 0.02 μmole glycerol/10^5 adipocytes/2 h
- Specific activity [2]: 50 μmol/10^5 adipocytes/mg protein
